Target: recombinant human IGF-BP3 (GT2675 produced by GT) (UniProt P17936)
Sequence (P17936 28-291): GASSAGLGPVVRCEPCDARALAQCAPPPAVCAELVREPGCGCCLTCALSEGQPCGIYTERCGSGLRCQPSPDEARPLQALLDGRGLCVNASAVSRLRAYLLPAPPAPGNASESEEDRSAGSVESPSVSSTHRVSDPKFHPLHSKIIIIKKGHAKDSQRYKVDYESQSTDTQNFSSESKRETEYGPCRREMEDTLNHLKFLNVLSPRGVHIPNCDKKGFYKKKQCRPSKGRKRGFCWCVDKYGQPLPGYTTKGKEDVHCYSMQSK

## human meltrin α-STFLAG after cleavage of the prodomain with thrombin (mature meltrin α having the prodomain deleted, 68 kDa)
  digestion of rhIGF-BP3 by meltrin α (SDS-PAGE and western blotting of rhIGF-BP3): the band corresponding to rhIGF-BP3 disappeared in the case of the meltrin α having the prodomain cleaved
